# US20130315914A1 (NOVIMMUNE, published 2013)
# Residue numbers refer to the chain shown, from its start. Names may count otherwise.
# T1: cynomolgus monkey TLR4 in cynomolgus monkey whole blood (cynomolgus monkey, UniProt Q9TSP2 24-826 (Papio anubis entry))
# T1 chain: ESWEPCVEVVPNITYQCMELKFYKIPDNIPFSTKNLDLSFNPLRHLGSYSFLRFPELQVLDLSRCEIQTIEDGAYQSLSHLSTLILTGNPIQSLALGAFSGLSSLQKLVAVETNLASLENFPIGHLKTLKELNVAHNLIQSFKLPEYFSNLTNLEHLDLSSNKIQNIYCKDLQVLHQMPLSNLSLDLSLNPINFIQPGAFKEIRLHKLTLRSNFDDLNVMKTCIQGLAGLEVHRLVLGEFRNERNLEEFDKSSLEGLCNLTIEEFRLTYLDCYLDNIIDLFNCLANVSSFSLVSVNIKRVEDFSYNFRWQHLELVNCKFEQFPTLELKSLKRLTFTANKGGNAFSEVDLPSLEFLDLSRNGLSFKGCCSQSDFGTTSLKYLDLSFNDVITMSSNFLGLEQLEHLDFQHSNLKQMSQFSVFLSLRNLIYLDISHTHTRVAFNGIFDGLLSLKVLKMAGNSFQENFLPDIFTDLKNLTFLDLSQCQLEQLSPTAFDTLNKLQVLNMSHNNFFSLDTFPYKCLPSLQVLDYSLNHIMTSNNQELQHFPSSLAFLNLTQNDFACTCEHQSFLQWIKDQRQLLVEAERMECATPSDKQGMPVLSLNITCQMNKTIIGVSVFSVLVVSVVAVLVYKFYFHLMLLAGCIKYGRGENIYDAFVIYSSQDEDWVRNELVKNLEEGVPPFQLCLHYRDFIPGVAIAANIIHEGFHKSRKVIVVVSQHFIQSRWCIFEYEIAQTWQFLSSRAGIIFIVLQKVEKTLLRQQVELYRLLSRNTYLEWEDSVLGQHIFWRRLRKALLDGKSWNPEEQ
# T2: cynomolgus monkey TLR4 expressed on stably transfected CHO-K1 cells (cynomolgus monkey, UniProt Q9TSP2 24-826 (Papio anubis entry))
# T2 construct: Transfected alone; also called CHO cells expressing the cynomolgus monkey TLR4
# T2 chain: T1 chain
# B1: 1E11.C2 antibody (IgG1) (antibody, V domains shown)
# VH: QVQLQESGPGLVKPSDTLSLTCAVSGYPIRFGYSWHWIRQPPGKGLEWMGYIHYSGYTDFNPSLKTRITISRDTSKNQFSLKLSSVTAVDTAVYYCARKDSGNYFPYWGQGTLVTVSS
# VL: EIVLTQSPDFQSVTPKEKVTITCRASQSISDHLHWYQQKPDQSPKLLIKYASHAISGVPSRFSGSGSGTDFTLTINSLEAEDAATYYCQQGHSFPLTFGGGTKVEIK
# B2: 1A1 antibody (IgG1) (antibody, V domains shown)
# VH: B1 VH with P28S, R30T, F31G, N103R, Y104L, F105L
# VL: B1 VL
# notes: also called 1A1 Mab
# B3: 1D10 antibody (IgG1) (antibody, V domains shown)
# VH: B1 VH with P28S, R30T, F31G, N103H, Y104N, F105L
# VL: B1 VL
# notes: also called 1D10 Mab
# B4: 1C7 antibody (IgG1) (antibody, V domains shown)
# VH: B1 VH with P28S, R30T, F31G, N103H, Y104N, F105Y
# VL: B1 VL
# notes: also called 1C7 Mab
# B5: 1A6 antibody (IgG1) (antibody, V domains shown)
# VH: B1 VH with P28S, R30T, F31G, N103K, Y104W, F105L
# VL: B1 VL
# notes: also called 1A6 Mab
# B6: 1G12 antibody (IgG1) (antibody, V domains shown)
# VH: B1 VH with P28S, R30T, F31G, N103R, F105W
# VL: B1 VL
# notes: also called 1G12 Mab
# B7: 1B12 antibody (IgG1) (antibody, V domains shown)
# VH: B1 VH with P28S, R30T, F31G, N103H, Y104L, F105M
# VL: B1 VL
# notes: also called 1B12 Mab
# B8: 1C12 antibody (IgG1) (antibody, V domains shown)
# VH: B1 VH with P28S, R30T, F31G, N103Q, Y104L
# VL: B1 VL
# notes: also called 1C12 Mab
# B9: 1C10 antibody (IgG1) (antibody, V domains shown)
# VH: B1 VH with P28S, R30T, F31G, N103K, Y104N
# VL: B1 VL
# notes: also called 1C10 Mab
# B10: 1E11 N103D antibody (IgG1) (antibody, V domains shown)
# VH: B1 VH with P28S, R30T, F31G, N103D
# VL: B1 VL
# notes: 1E11 with the N103D mutation in the heavy chain; also called 1E11 N103D Mab
# B11: 1E11.C3 antibody (IgG1) (antibody, V domains shown)
# VH: B1 VH with F31H
# VL: B1 VL
# B12: 1E11.C5 antibody (IgG1) (antibody, V domains shown)
# VH: B1 VH with R30W, F31G
# VL: B1 VL
# B13: 1E11.C1 antibody (IgG1 reformatted) (antibody, V domains shown)
# VH: B1 VH with Y27F, F31Y
# VL: EIVLTQSPDFQSVTPKEKVTITCRASQSISDHLHWYQQKPDQSPKLLIKYASHAISGVPSRFSGSGSGTDFTLTINSLEAEDAATYYCQQGHSFPLTFGGGTKVEIKR
# notes: VH 67 / VL 4 are the variable domains
# B14: 1E11.E2 antibody (IgG1) (antibody, V domains shown)
# VH: B1 VH with P28S, R30T, F31G
# VL: B1 VL with H92Y, S93D, F94E, L96F
# B15: 1E11.E3 antibody (IgG1) (antibody, V domains shown)
# VH: B1 VH with P28S, R30T, F31G
# VL: B1 VL with H92Y, S93D
# B16: 1E11.E5 antibody (IgG1) (antibody, V domains shown)
# VH: B1 VH with P28S, R30T, F31G
# VL: B1 VL with H92Y, S93E
# B17: 1E11.C6 antibody (IgG1) (antibody, V domains shown)
# VH: B1 VH with R30G, F31G
# VL: B1 VL
# B18: 1E11.C2E5 antibody (IgG1) (antibody, V domains shown)
# VH: B1 VH
# VL: B1 VL with H92Y, S93E
# B19: 1E11.E4 antibody (IgG1) (antibody, V domains shown)
# VH: B1 VH with P28S, R30T, F31G
# VL: B1 VL with H92Y, S93D, F94Y
# B20: 1E11.E1 antibody (IgG1) (antibody, V domains shown)
# VH: B1 VH with P28S, R30T, F31G
# VL: B1 VL with H92N, S93D, L96V
# B21: 1E11.C2E1 antibody (IgG1) (antibody, V domains shown)
# VH: B1 VH
# VL: B1 VL with H92N, S93D, L96V
# B22: 1E11.C2E4 antibody (IgG1) (antibody, V domains shown)
# VH: B1 VH
# VL: B1 VL with H92Y, S93D, F94Y
# B23: 1E11 antibody (IgG1 reformatted) (antibody, V domains shown)
# VH: B1 VH with P28S, R30T, F31G
# VL: B13 VL
# notes: also called 1E11 Mab
# Molecular target: human TLR4 in human whole blood (human)
# Assay: cell-based or functional assay
Binder,"IC50, inhibition of IL-6 production in human whole blood assay [µg/mL]",fold better than 15C1 at blocking human TLR4 (human whole blood assay) [fold]
B1,0.07,3

# Molecular target: T1, cynomolgus monkey TLR4 in cynomolgus …
# Assay: cell-based or functional assay
row,Binder,"IC50, inhibition of IL-6 production in cynomolgus monkey whole blood assay [µg/mL]"
1,B1,~0.5

# Molecular target: T2, cynomolgus monkey TLR4 expressed on …
# Assay: summary table of species specificity (flow cytometry results)
# Method: 10⁵ CHO cells or CHO cells expressing the cynomolgus monkey TLR4 were incubated in phosphate-buffered saline, 2% bovine serum albumin with different concentrations of purified antibodies selected by FMAT (1A1, 1A6, 1B12, 1C7, 1C10, 1C12, 1D10, 1E11, 1G12) with 15C1 as control. Cells were washed in phosphate-buffered saline, 2% bovine serum albumin and incubated in Alexa Fluor® 647 goat anti human IgG (H+L) (1:200; Invitrogen). Cells were analyzed using a FACS calibur cytometer (BD Biosciences).
# Similar experiments were conducted with CHO cells or CHO cells expressing the human TLR4/MD2 complex. […] 1C12 Mab was also able to bind to human TLR4 but with a lower potency compared to 1E11 and 15C1 Mabs.
row,Binder,binding result
1,B2,binds
2,B3,binds
3,B4,binds
4,B5,binds
5,B6,binds
6,B7,binds
7,B8,binds
8,B9,binds
9,B10,binds

# Molecular target: T3, soluble histidine-tagged form of human TLR4/MD2 complex (human, UniProt Q9Y6Y9 19-160)
# Assay: competitive ELISA; 15C1 reference EC50 divided by variant EC50
# Method: (§1) The VH and VL cDNA sequences in their appropriate expression vectors were transfected into mammalian cells using the Fugene 6 Transfection Reagent (Roche, Basel, Switzerland). Briefly, Peak cells were cultured in 6-well plates at a concentration of 6×10⁵ cells per well in 2 mL culture media containing fetal bovine serum. The expression vectors, encoding the candidate VH and VL sequences, were co-transfected into the cells using the Fugene 6 Transfection Reagent according to manufacturer's instructions. One day following transfection, the culture media was aspirated, and 3 mL of fresh serum-free media was added to cells and cultured for three days at 37° C. Following three days culture period, the supernatant was harvested for IgG purified on protein G-Sepharose 4B fast flow columns (Sigma, St. Louis, Mo.) according to manufacturer's instructions. Briefly, supernatants from transfected cells were incubated overnight at 4° C. with ImmunoPure (G) IgG binding buffer (Pierce, Rockford Ill.). Samples were then passed over Protein G-Sepharose 4B fast flow columns and the IgG consequently purified using elution buffer. The eluted IgG fraction was then dialyzed against PBS and the IgG content quantified by absorption at 280 nm. Purity and IgG integrity were verified by SDS-PAGE. Relative binding potency of 1E11 variants was assessed by competitive ELISA. Briefly, 15C1 antibody was coated overnight in a 96-well Maxisorp plate and then blocked with PBS-BSA. The 15C1 reference antibody and affinity matured variants of 1E11 were added to the plate at a fixed concentration and a 3.5-fold serial dilution of the samples was performed. Then, soluble histidine-tagged form of human TLR4/MD2 complex was added to the plate at a fixed concentration. After incubation one hour at 37° C., the plate was washed and a solution of Penta-His-HRP antibody was distributed, this step was followed by an additional incubation time of one hour at 37° C. Finally, the plate was washed and TMB was added for colorimetric revelation, the enzymatic reaction is stopped by H₂SO₄ solution. The results were determined according to the absorbance at 450 nm. The relative binding potency was calculated by dividing the reference EC₅₀ with affinity matured variants EC₅₀ (Table 8).
# T3 sequence (Q9Y6Y9 19-160, one chain of several): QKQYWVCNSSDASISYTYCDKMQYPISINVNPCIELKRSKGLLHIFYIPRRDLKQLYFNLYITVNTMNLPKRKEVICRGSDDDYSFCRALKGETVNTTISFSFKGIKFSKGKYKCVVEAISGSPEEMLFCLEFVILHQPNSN
row,Binder,Relative binding potency increase [fold]
1,B11,5
2,B12,7
3,B13,12
4,B14,2
5,B15,5
6,B16,4
7,B17,10
8,B18,36
9,B1,17
10,B19,5
11,B20,4
12,B21,29
13,B22,40

# Molecular target: T2, cynomolgus monkey TLR4 expressed on …
# Assay: summary grade (species binding potential); assay not given
row,Binder,binding result
1,B23,binds
2,B11,binds
3,B12,binds
4,B14,binds
5,B15,binds
6,B16,binds
7,B17,binds
8,B18,binds
9,B19,binds
10,B20,binds
11,B21,binds
12,B22,binds

# Molecular target: T3, soluble histidine-tagged form of human …
# Assay: competitive ELISA; coated 15C1 as competitor, soluble His-tagged human TLR4/MD2, Penta-His-HRP
# Method: as §1
row,Binder,EC50 [µg/mL]
1,B11,0.119
2,B12,0.087
3,B13,0.052
4,B14,0.315
5,B15,0.126
6,B16,0.152
7,B17,0.061
8,B18,0.017
9,B1,0.036
10,B19,0.13
11,B20,0.157
12,B21,0.021
13,B22,0.015
